# In patent publication US20030129638A1, “Reagents for antagonizing the protein-protein interaction between Raf-1 and apoptosis signal-regulating kinase and uses therefor” (priority 2001, published 2003):
# How the values were obtained:
# [1] = system: ASK1-induced apoptosis in HeLa cells; assay: β-gal cell morphology-based apoptosis assay: effect of MEK inhibition on Raf-1 inhibition of ASK1-induced cell death; set-up: species or system human; details: PD98059 60 μM for 18 h
# Experimental: FIG. 2B is a graphic summary of the effect of MEK inhibition by PD98059 on Raf-1 function. Six hours after transfection as in A, HeLa cells were treated with PD98059 (60 μM) or vehicle (DMSO) for 18 h before being stained with 5-bromo-4-chloro-3-indolyl-D-galactopyranoside and scored for apoptosis in a blind fashion. Specific apoptosis is derived by subtracting the level of apoptosis seen in pcDNA3-transfected cells. At least 500 cells were scored for each sample. Results shown are representative of three independent experiments.
# For the nuclear morphology assays (Zhang et al. (1999) Proc. Natl. Acad. Sci. USA 96:8511-8515), 2×10^5 HeLa cells were cultured in 35-mm dishes containing glass coverslips. […] Twenty-four hours later, cells on the glass coverslips were washed, fixed (0.5% glutaraldehyde/2% formaldehyde in PBS), stained with 4′,6-diamidino-2-phenylindole (DAPI) in Vectashield mounting medium (Vector Laboratories), and visualized by using a fluorescence microscope as described (Zhang et al. (1999) Proc. Natl. Acad. Sci. USA, 96:8511-8515). Transfected cells with fragmented nuclei were scored for apoptosis in a blind fashion. […] Twenty-four hours after transfection, cells were fixed, stained with 5-bromo-4-chloro-3-indolyl-β-D-galactopyranoside, and scored for apoptosis as described (Chang et al. (1998) Science 281:1860-1863). […]
# ERK1/2 activation = assay: Western blot of ERK1/2 activation in HeLa cell lysates; assay type: cell-based, human; details: HeLa cells, 60 μM
# Experimental: Cell lysates from HeLa cells treated with 60 μM PD98059 or vehicle were probed by Western blotting with either an ERK1/2 activation-specific antibody (Upper; Cell Signaling Technology) or pan-ERK1/2 antibody (Lower; Cell Signaling Technology).
# To test the hypothesis that Raf-1 regulates ASK1-induced apoptosis through the MEK-ERK pathway, we used two widely used MEK antagonists, PD98059 and U0126 (Dudley et al. (1995) Proc. Natl. Acad. Sci. USA 92:7686-7689; Favata et al. (1998) J. Biol. Chem. 273:18623-18632). […] To confirm the observations with PD98059 and U0126, we used a dominant negative mutant of MEK1, MEK1dn, to interfere with MEK signaling (Sugimoto et al. (1998) EMBO J. 17:1717-1727).
# [2] = molecular target: T1, protein-protein interaction between Raf-1 and ASK1 (Homo sapiens, UniProt P04049); assay: Coimmunoprecipitation with anti-Raf-1 antibody and Western blot for ASK1 in transfectants expressing ASK1 N-terminal domain fusion peptides; assay type: cell-based; details: fusion peptide expressed in cells, FIG. 7
# T1 construct: expressed in transfected cells; host or cells: COS7
# Experimental: FIG. 7 is a Western blot analysis of Raf-1 immunoprecipitates obtained from transfectants comprising N-terminal domain truncation peptides.
# (§1) Forty-eight hours after transfection, 4×10^5 COS7 cells were lysed in 300 μl of lysis buffer (0.2% Nonidet P-40/10 mM Hepes, pH 7.4/150 mM NaCl/5 mM NaF/2 mM Na3VO4/5 mM Na4P2O7/10 μg/ml aprotonin/10 μg/ml leupeptin/1 mM phenylmethylsulfonyl fluoride). Cell extracts were clarified by centrifugation and used for immunoprecipitation with various antibodies and protein G-Sepharose (Amersham Pharmacia). Immunocomplexes were washed four times with lysis buffer containing 1% Nonidet P-40 or RIPA buffer (1% Nonidet P-40/0.5% sodium deoxycholate/0.1% SDS/137 mM NaCl/20 mM Tris.HCl, pH 7.5) and resolved on SDS/PAGE (12.5%) for Western blotting. The enzyme-linked immunoblotting procedures were performed essentially as described (Zhang et al. (1999) Proc. Natl. Acad. Sci. USA 96:8511-8515). Corresponding secondary antibodies were used against each primary antibody: horseradish peroxidase-conjugated goat anti-mouse IgG for monoclonal antibodies and horseradish peroxidase-conjugated goat anti-rabbit IgG for polyclonal antibodies (Santa Cruz Biotechnology). Cross-reacting materials were visualized by using the ECL detection reagents (Amersham Pharmacia).
# Coimmunoprecipitation experiments were performed using anti-Raf-1 antibody (RI9120, Transduction Laboratories) as described. […] Raf-1 immunoprecipitates were analyzed with antibodies specific for ASK1 and Raf-1 (upper panel). HA-ASK1 protein present in Raf-1 immunoprecipitates was probed with anti-ASK1 antibody H-300 (1:2000, Santa Cruz;). […] The effect of this disruption is manifested as the absence of ASK1 protein in the Raf-1 immunoprecipitates.
# [3] = system: Raf-1 prosurvival effects on ASK1-induced cell death in COS7 cells; assay: DNA content-based flow cytometric apoptosis assay (sub-G0 fraction) in transfected COS7 cells; assay type: cell-based; details: COS7 cells cotransfected with HA-ASK1, Flag-Raf-1 and ASK1 truncation construct (0.3 μg), FIG. 8
# Experimental: FIG. 8 provides a graphic representation of data obtained from a DNA content-based flow cytometric apoptosis assay. The fraction of transfected cells with sub-G0 DNA content in each sample was quantified. The data presented are representative of three independent experiments.
# The DNA content-based apoptosis assay was performed with a fluorescence-activated cell sorter as described (Spector et al. (1997) Cells: A Laboratory Manual (Cold Spring Harbor Lab. Press, Plainview, N.Y.). Briefly, COS7 cells (2×10^5) were cotransfected with pEGFP-F (0.4 μg; CLONTECH) encoding a farnesylated eGFP and test plasmids (1.6 μg total). Twenty-four hours after transfection, total cells were trypsinized, resuspended in PBS, fixed in ice-cold ethanol followed by overnight incubation, treated with RNase A (Sigma-Aldrich), and stained with propidium iodide (Sigma-Aldrich). Samples were analyzed with a FACSort flow cytometer (Becton Dickinson). The DNA content of transfected cells was determined by using WINMDI 2.8 software (Trotter, Scripps Research Institute, La Jolla, Calif.).
# A DNA content-based flow cytometric apoptosis assay was performed to evaluate the effects of the ASK1 N-terminal domain truncation peptides on the prosurvival effects of Raf-1. COS7 cells were transfected with indicated plasmids encoding HA-ASK1 (1.0 μg), Flag-Raf-1 (0.3 μg) or ASK1 truncation constructs (0.3 μg) as indicated along with an EGFP-F expression vector (0.4 μg) as described.
# Raf-1 = Raf-1 (Homo sapiens, UniProt P04049); assay: Association of ASK1 N-terminal domain truncation peptides with Raf-1; assay type: binding; details: N-terminal domain fusion peptide
# Experimental: FIG. 6A provides a schematic representation of the ASK1 N-terminal domain truncation proteins used herein. Association of ASK1 mutants with Raf-1 is summarized. Positive interaction is represented by (+).
# as §1
# FIG. 6A provides a schematic representation of the ASK1 N-terminal domain truncation peptides used herein. Various truncation mutants of the ASK1 N-terminal domain were generated as shown and expressed as fusion proteins with a (His)6-tag at the N-terminus and an HA-tag at the C-terminus, except ASK-N69-163 which has the N-terminal (His)6-tag but a GST-tag at the C-terminus. Association of ASK1 mutants with Raf-1 is summarized. Positive interaction is represented by (+).
Binding to Raf-1 (Raf-1),Molecule,Effect on the ability of Raf-1 to inhibit ASK1-induced cell death [1],Activation of ERK1/2 (ERK1/2 activation),Disruption of the Raf-1/ASK1 interaction (ASK1 in Raf-1 immunoprecipitates) [2],Effect on Raf-1 prosurvival effects on ASK1-induced cell death [3]
,COc1cccc(-c2cc(=O)c3ccccc3o2)c1N [PD98059],did not decrease the ability of Raf-1 to inhibit ASK1-induced cell death,diminished the activation of ERK1/2,,
ability to bind Raf-1,"SEQ ID NO:8: amino acid residues 69 to 230 of the full-length human ASK1 sequence set forth in SEQ ID NO:1 (protein, UniProt Q99683 69-230, looked up, fragment) AATSSSSATRGRGSSVGGGSRRTTVAYVINEASQGQLVVAESEALQSLREACETVGATLETLHFGKLDFGETTVLDRFYNADIAVVEMSDAFRQPSLFYHLGVRESFSMANNIILYCDTNSDSLQSLKEIICQKNTMCTGNYTFVPYMITPHNKVYCCDSSF",,,disrupts the protein-protein interaction between Raf-1 and ASK1,eliminates Raf-1 prosurvival effects on ASK1-induced cell death
ability to bind Raf-1,"SEQ ID NO:3: amino acid residues 6 to 230 of full-length human ASK1 (SEQ ID NO:1), expressed as a (His)6/HA-tagged fusion peptide (protein, UniProt Q99683 6-230, looked up, fragment, His6/HA tag) DEGITFSVPPFAPSGFCTIPEGGICRRGGAAAVGEGEEHQLPPPPPGSFWNVESAAAPGIGCPAATSSSSATRGRGSSVGGGSRRTTVAYVINEASQGQLVVAESEALQSLREACETVGATLETLHFGKLDFGETTVLDRFYNADIAVVEMSDAFRQPSLFYHLGVRESFSMANNIILYCDTNSDSLQSLKEIICQKNTMCTGNYTFVPYMITPHNKVYCCDSSF",,,disrupts the protein-protein interaction between Raf-1 and ASK1,eliminates Raf-1 prosurvival effects on ASK1-induced cell death
ability to bind Raf-1,"SEQ ID NO:7: amino acid residues 6 to 163 of the full-length human ASK1 sequence set forth in SEQ ID NO:1 (protein, UniProt Q99683 6-163, looked up, fragment) DEGITFSVPPFAPSGFCTIPEGGICRRGGAAAVGEGEEHQLPPPPPGSFWNVESAAAPGIGCPAATSSSSATRGRGSSVGGGSRRTTVAYVINEASQGQLVVAESEALQSLREACETVGATLETLHFGKLDFGETTVLDRFYNADIAVVEMSDAFRQP",,,disrupts the protein-protein interaction between Raf-1 and ASK1,eliminates Raf-1 prosurvival effects on ASK1-induced cell death
